This test deals with anti-VCAM-1.tTF coaguligand (anti-VCAM-1 antibody IgG covalently linked via SMPT to truncated tissue factor with an added N-terminal cysteine) (human) (UniProt P13726). As to the kind of experiment: 125I-labeled 10H10 bound to anti-VCAM-1.tTF-treated IL-1α-activated bEnd.3 cells, gamma counting.
Sequence of UniProt P13726 (P13726 other isoform, or with tags, fused parts or gaps): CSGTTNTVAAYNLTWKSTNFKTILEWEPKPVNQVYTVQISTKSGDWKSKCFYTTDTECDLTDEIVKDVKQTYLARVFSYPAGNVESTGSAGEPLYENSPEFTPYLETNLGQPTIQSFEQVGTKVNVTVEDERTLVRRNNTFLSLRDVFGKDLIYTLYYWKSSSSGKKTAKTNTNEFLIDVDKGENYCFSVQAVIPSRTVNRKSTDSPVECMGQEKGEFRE

In turn, “10H10, mouse monoclonal antibody against human tissue factor” showed an anti-TF antibody bound to coaguligand-treated cells at saturation of 8.7 fmol and a molecules of anti-TF antibody bound per cell at saturation (molecules of anti-TF antibody per cell) of 540000.

Source of the values: patent US6783760.
